Columns and labels:
生物素标记的抗原多肽 = assay: BLI (Fortebio Octet), biotinylated peptide on SA biosensor, antibody at 1.56-100 nM
人IV型胶原蛋白α3链多肽 (human) = assay: indirect ELISA, purified antibody on plates coated with 0.5 μg/ml peptide

Kd (生物素标记的抗原多肽): 0.399 nM
EC50 (人IV型胶原蛋白α3链多肽 (human)): 4.64 ng/mL
B1: 4E5E2-1 (antibody, IgG1, V domains shown)
VH: EVQLQQSGAELVRSGASVKLSCTASGFNIKDSNIHWLIQRPEQDLEWIGWIDPDNGDSEYAPKFQGEATMTADTSSNTAYLQLSSLTSEDTAVYFCNAVNWDYFDYWGQGTTLTVSS
VL: DVVVTQTPLSLPVSLGDQASISCRSSQSLVHNNGNTYLHWYLQRPGQSPKLLIYKVSNRFSGVPDRVSGSGSGTDFTLKISRVEAEDLGVYFCSQSTHIPITFGSGTKLEIK
